Results on 71 sequences are retold here after the supplement of paper PMC12636428.

The test system of this data set is Saccharomyces cerevisiae. Kind of data set: transcriptional activation domain activity (GFP:mCherry ratio, weighted mean of sorted bins, harmonized to initial dataset scale) (arbitrary fluorescence ratio units); higher = stronger transcriptional activation. Particulars: beta-estradiol 1 µM; induction time 4 h. How it is done:
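53-aa protein tiles (fungal proteins plus yeast TF control tiles) fused C-terminally to a DBD-estrogen-binding domain-mCherry synthetic TF, integrated in S. cerevisiae (URA3 locus) with a GFP reporter. Cells were induced with 1 uM beta-estradiol for 4 h at 30 C, FACS-sorted into 8 bins by GFP:mCherry ratio and barcodes sequenced. Activity is the read-weighted mean bin fluorescence (GFP:mCherry), averaged over barcodes (median 12); tiles under 50 reads were discarded. New active-learning values were harmonized by linear fit onto the scale of the initial (Hummel et al.) dataset. The assay saturates at low and high signal.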
“LEGGRVIQRGRHNVATDVVGCFYDAFCTLLPQMIIVRVTRGKAWDSRVIYPTE”: the “transcriptional activation domain activity” value was determined as 66400.
As for “LSVSLVYNSAYLLQRISFWVISFSTYTLPTWLFTLFSTSLTFTMNFTTLLIIV”, the “transcriptional activation domain activity” value is 78700.
As to “KEDILLTLYENSTFGGLWSKLSDCLTVIRQRGNMLNIATILLPLIEALMVVCK”, the “transcriptional activation domain activity” value is 54700.
As to “GHSIPRLNFGDGYNLNNGRAYRGGTWASTLRYRKSNGLWYWIGCVNFWHTWIF”, the “transcriptional activation domain activity” value is 75000.
As for “YNLVLSHNLVLSHLWHHYYVQHLHGLLRSFSSINLPFLLHLPLSLLLLHWVTW”, the “transcriptional activation domain activity” value was found to be 55700.
For “LGSCFLLSLVHPFFLLYYLYLRLLSLCFLYLRFVFFFCSPMSFFILLSIMSFL”, the “transcriptional activation domain activity” value stood at 60100.
Turning to “RRDCATSSDARTPARLCCSHGVGTKLDKAETSREVSAEEARALADAHGARFCE”, the “transcriptional activation domain activity” value stood at 24300.
As to “MNQTSRFFSPFFLFLFLLFLSFLSPPPFLPSSLPFLLFLPFLPLSLSLLSLIF”, the “transcriptional activation domain activity” value was 15400.
Then “MNLYLLCRYMTLVYCFVYMLGNNITKFDCEVWVKALLSFGYIASILSSSLIVL”, with 61200; and “NVRYITNLSFTSDSVYKFLLFYPLFLIMTEPIIQLLGIYLAYIYGLIYLILTS”, with 55800.
For “MGNMGTCSFFFFFCWSSFFLCYFCVFPCVLSFQVEGLEAIFLPFTFFPFWFSL”, the “transcriptional activation domain activity” value is 57300.
Regarding “LSYCHRPVFTCCDLYRTCLYCSIFYLLSFPILLPPSISLHIILLFSHTILIIL”, the “transcriptional activation domain activity” value worked out at 31700.
For the sequence “TTTTAADDADTDSKKEKEKEQAAVKVKVKEKEKEKRVLVHCCMGRSRSGAVVV”, the “transcriptional activation domain activity” value stood at 20200.
Then “MNVLTFFYVVGGVFFFFTISFALPGGYIVLDLSYYNHIICATYLLLLFEFMFY”, with 54200.
As for “MYFAYFYLLPEMSSLSFFPFLSVYVFFIFFSSLICFFFFLSMGFLCLFTFLLV”, the “transcriptional activation domain activity” value was found to be 45200.
With “GYIVFLSMVMIHTDSRLDHLGKRSVLSEENSKNSWQLLVLFLHQLSTYWLLPK”, the “transcriptional activation domain activity” value came to 57900.
Turning to “EDCDFLGDDTCSIVNHINCQHGINFDIQFANPDSFLPGSISKEKHHLLHCPNP”, the “transcriptional activation domain activity” value was found to be 77900.
Take “GKPRGYAFVEYEREKDMKAAYKEGDGMKITGRRVVVDVERGRTVKGWKPRRLG”: the “transcriptional activation domain activity” value worked out at 36700.
Then “RKDRKDRTRKERRDRHDDGRRHRHRRSSRSRSRDRRDRKHDRSRSRDRRKDGD”, with 9360; and “MWLVKCTYILYIYIFGKWKVREVLELTRVFFFFFSFFFFLFFFPFFFFFFFFF”, with 59900.
For “LEEIHILERLYYKSKNQHHASLFWRKLTEIRRVTTRLLKFNVTETVASIPLAF”, the “transcriptional activation domain activity” value is 59200.
“MLWGNVGTSIKIWYGVFFCYCSIVLFRSSLYIINFFLLCFFFFFVFFLWFFYH”: the “transcriptional activation domain activity” value is 44400.
Turning to “MIVFLFWVIGINLDCNCWFSLFLILLMRVMDLMSYGWIIEVFFFLLNFYYLLF”, the “transcriptional activation domain activity” value was determined as 53700.
As for “SSPSSQTSSSTSVVLVFGLEEKRVKEAGEQLKSKLGVKGGGKGPRWSGKFVGV”, the “transcriptional activation domain activity” value worked out at 51600.
Consider “DEDPAKKGKKKASEPAATKVKAARGRKSKAAATEGSEAGPSKPPAKGRGKKAA”, for which the “transcriptional activation domain activity” value was 15800.
Regarding “IPIKYNTAIKRHQHSTELPSSVKCGFCNDNTTCVCKELETDHRKSDDGVATEQ”, the “transcriptional activation domain activity” value stood at 39200.
As for “GGGGDNAAAGEKNSSSSSNSHHNSSKKSGRGGRSNSESRNEGGGRSTAGGGSA”, the “transcriptional activation domain activity” value turned out to be 31800.
As to “AKPDVKKAKAAPVASPKPKAKAAKKVAEPAVEEKKVEEKAEKLAKKAKATKAE”, the “transcriptional activation domain activity” value is 32700.
Then “SLLAKCDNGDVLKLQEAIEEDDAAREERERAERAAAALKREKEGSASRVLVTG”, with 38800; and “KFHYRCGVAAKDTTESLRWVVADHYTWFTCTHCAAHKAHWYFDGSLGLVRLWF”, with 69200; and “KEEAGEEAEEASPAPSEQKEEAPPSGQKPQANTGKKKDQASPAKKTGATAAAK”, with 13700.
For “KEKEVKAEVEEDGSEQEEGEGEEEEEGATRSSARKGKGRATAGGRKTRRGAAG”, the “transcriptional activation domain activity” value worked out at 19400.
Take “RMGMTQELLALVTGLAHYLKILIRIALTGALKLERDYVLREAISSFLDKLHLL”: the “transcriptional activation domain activity” value came out at 69700.
In the case of “LAILMDGLNRILLTHKDDIGIVARVMLAYMTAATRFKRLFISGGGYMLFMPAV” it was 59800.
In the case of “MCVFLFFVLWLLQKLGLLALALRCYVQKNSLIFFLFFFLVLDYIFFFLHWCKH” it was 35300; in that of “SAAAAAPVAAAAAPAAASSIAPAVVGGAVGAAAIGGGAAIAASSDKAAAAAAA”, 37700.
With “RWSYLRTSEMILTFFYKNIMWTLVLFWYQLFCGFSGTMMFDYSYITLYNLVFT”, the “transcriptional activation domain activity” value was 63200.
As to “MQFDIGPFVFFGLGWLSAIYLLLFPFFFFFFRLFPSLEFWLDLALIFMFRVLH”, the “transcriptional activation domain activity” value amounted to 46300.
In the case of “LCIDDKYILIYGQEDSNHKVTVRKVTLQLFMCLINYTVRNILWWSLSGLITGF”, the “transcriptional activation domain activity” value is 38400.
In the case of “FHLPCLSLRWWRWCWGHYRLILVVLCLVLLPCLVFLDTIYVYKAFFQIKLENT” it was 34500.
For the sequence “LMDSGGPDVRPPPKRARKAINCEPCRNSKLKCDRNRPCSSCVLRGTTSQCYQG”, the “transcriptional activation domain activity” value is 43700.
Regarding “HYRIRLIYFMHFVAFGFGLSSILVNLFLCRPLRKNWMTDVNGRCFNRDAFYYA”, the “transcriptional activation domain activity” value is 58600.
Then “HALRTFVYKAAIIPISLFLVHFRRAFSCLCFCALSGFPRCHLTLLSIMFIFSL”, with 53700; and “MPMDILVFYIPHRIKFCFFFFYLFIFFIFLPSYLIFYCTVTSAFLLFLYLYYL”, with 26000; and “LCYQRMLLRVLLSFCDWIIKLESASQASKLGESMILARRSVDLLVIAIINVGT”, with 40700.
As for “MSPPTLREVNVSLPRKFDTPDEPWHRYVTIDLLHYVLGYTLFHPFVSCVLVLC”, the “transcriptional activation domain activity” value is 35200.
Consider “TNTGFGASNTPAGGAGGGGGIFGSGTSGFGGGTSAFGAANNNNAFGAKPAFGA”, for which the “transcriptional activation domain activity” value was 45600.
As for “AKLALILVLFEVYVKWFKLEKLYGRSDFLLVESLHYQYFCILCLCVVEFVIWH”, the “transcriptional activation domain activity” value came out at 45300.
On to “KQYCVRPNSGRIEPGREVEVSVLLQAMKQEPAPDARCRDKFLVQSVTITSDQE”, for which the “transcriptional activation domain activity” value turned out to be 20500.
As for “SIHEPVDFLEPQPFLDFFVVFCFRLLFLWLLIFIFLFRLFIVFSLLFLFLHHI”, the “transcriptional activation domain activity” value was found to be 28600.
With “AEEGEEGRRKKGASKARSESGRSRIGGKRKEGEGEREGDEGRKKKRKKNKEKE”, the “transcriptional activation domain activity” value stood at 32800.
As to “LGILLLLFDWRVLFNAAQMSCALHESCIALSVMKARNQEWKWWCLGSTYYVYE”, the “transcriptional activation domain activity” value was 44100.
On to “SKDARETNPEGEEIEKQRRKKRSREEKEDNERSSRKRRSSRSRSPRRQKEKAN”, for which the “transcriptional activation domain activity” value worked out at 30900.
As for “KWLCYVELMNILTLGWPLSNIHFYICKYCAGWFRKYNYLFGTGINGGAQIFVL”, the “transcriptional activation domain activity” value was 66700.
Consider “LYLLIFFPVLLWRYLCIGLDSVLCCHIGFHFPYFMCYFFAIMSVSRSFFIHVY”, for which the “transcriptional activation domain activity” value turned out to be 67200.
In the case of “LLIYGIVGFINLIKGEYLIVITGCKKIGSLVHNAEIYRATSFQILPVTHGLSS”, the “transcriptional activation domain activity” value worked out at 55300.
On to “PTTTTTPSSPSTTCRSPTRRRAPRRRSACTGSRTRRGSPQSRRRCCRRTTSTT”, for which the “transcriptional activation domain activity” value was determined as 28900.
On to “MCPVLFCFYSLMILIFFLSFLFRTSYIYTLYFPGLFVCCLFFLFLLFLSLSQW”, for which the “transcriptional activation domain activity” value is 73200.
With “PSASLSFVSFFFFFLFLPLTFSSSYFFFLPFSSFPLFSSLSSTHIWSFLLSPL”, the “transcriptional activation domain activity” value turned out to be 39800.
On to “EMVKTESVATSSTTTTKTESEGAVVKEEKMASPSPTRVKVEKVEVKRVPTISL”, for which the “transcriptional activation domain activity” value is 15700.
With “TIHHLKDSRSSSWTVAIDNNSNNNKVSDNQPDFVDFQELLDNDTLGNDLLETT”, the “transcriptional activation domain activity” value amounted to 61400.
With “DGGDGDDGSGGEVERAGKSGRAKREGKRGAEEEEEERGDGRAARKTAEKRKKR”, the “transcriptional activation domain activity” value was under 6570.
In the case of “EKEKERKHKHRSRRDRSRSRDSDGGRDRRHRHRRDRSRSRDAHDDRERRHRHS”, the “transcriptional activation domain activity” value came out at 19000.
On to “SQNSNDTSSKGIVDPFVEQNNDITTALLNNELFQGPSLSDEVTDWFGASEDIG”, for which the “transcriptional activation domain activity” value amounted to 91000.
Then “GRHPEQHGVRYSLSKDSGATIVDIYLAHLLECLIPVVGRLKSVVSNLGTMRQT”, with 78200; and “AWKRVTALLGPVVRLKADIVEIFERVMIIYFRSLDLEEKPITAGILGTVNKWN”, with 48300; and “LLSLPNYFGIVFQVLKPEITTMYIAALDLCNLHTLYKAILFTLLALTWLILVF”, with 50500.
Regarding “SAGYYSRVSFFFFSNYHLIILHVFFFFFFFVYWVYFSSSDFFFLLGLTIFCFF”, the “transcriptional activation domain activity” value is 57900.
For the sequence “GHSTSTFNTYDEVVSRPFISLDMLHLNRGANANTHPSHNAKLESECDSSSHSD”, the “transcriptional activation domain activity” value is 38700.
As for “KFPLFMLIAQGSFAFILWCFPFRSFLFIWALLMFTHTPLPSLLLLASCFSFSF”, the “transcriptional activation domain activity” value stood at 60100.
For the sequence “MAPQRRPAAEVISSDSDDEAARPTGSAATRSAGGGGAGGGRRIVLTGRGNNSS”, the “transcriptional activation domain activity” value is 20400.
